The supplement of paper PMC9170038

System: MS2 coat protein
Test: apparent KD of MS2 coat protein; designed switch direction (-1 OFF switch, 1 ON switch): -1; higher = weaker reporter binding
Summary of the method: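 Each step of the titration lasted 0.8–1.5 h at the lowest concentration and 10–20 min at the highest. The protein, SNAP-549-labelled MS2 coat protein, went from 0.7 or 1.5 nM doubling to 3 µM over RNA switches transcribed on Illumina chips by stalled E. coli RNA polymerase. Normalised cluster fluorescence was curve-fitted, and the per-design median over clusters is given as apparent KD.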

[1] = Eterna round: R95, input ligand: microRNA oligo, concentration not stated
[2] = Eterna round: R95, input ligand: FMN 200 uM
[3] = Eterna round: R95, input ligand: none
[4] = input ligand: microRNA oligo, concentration not stated

Sequence	apparent KD of MS2 coat protein (input ligand: FMN 200 uM) [nM]	apparent KD of MS2 coat protein (input ligand: none) [nM]	apparent KD of MS2 coat protein [1] [nM]	apparent KD of MS2 coat protein [2] [nM]	apparent KD of MS2 coat protein [3] [nM]	apparent KD of MS2 coat protein [4] [nM]
CGGCGCCUAGGAUAUACUCUGAGAAUCAGUUGGGUCUCCGGACAUGAGGAUCACCCAUGUAGAAGGAGGAAGCU [EX2 C.11] (Eterna round: R97, puzzle: Exclusion 2)	21.3	18.4	–	–	–	–
UUUUUGUCAGGAUAUGAUUAGAUCUACUUUUGUAGAUCUAAUCAGAAGGGACAUGAGGAUCACCCAUGUAGUUU [Ex4 - 3 - 11] (puzzle: Exclusion 4)	–	–	35.7	–	–	–
GUUUGCGCAGGAUAUACUCCUCCAUGUUAAGAGCAUGUGCGACAUGAGGAUCACCCAUGUAGAAGGGCGAGACG [Eternabot (L2) Solution 8] (Eterna round: R97, puzzle: Exclusion 2)	194	345	–	–	–	–
CUGAGCUGAGGAUAUACAUGAGGAUCACCCAUGUUAAGCAGCUAGUGAAGAAGUAGAUGUAGAAGGCAGUUCGG [Mod of JL 21 - Jieux - Exclusion 3] (Eterna round: R97, puzzle: Exclusion 3)	75.2	21	–	–	–	–
AAAGAAGAGAGAAAAUAACACAUGAGGAUCACCCAUGUGAGAUGUUGAGGGUGAUACAGGCUUUUUGCUCGUCUUAU (puzzle: Sensor v3, turn-off variant 1)	–	–	283	231	321	–
AGGGCACAUGAGGAUCACCCAUGUGAGGAUAUCCCGGUACUAUCGAUGUAGUAAUCGUGGAGAAGGCACACGAC [EX1 C.21] (Eterna round: R97, puzzle: Exclusion 1)	90.3	62.6	–	–	–	–
AAGGGUACUUUCGGAACGACAUGAGGAUCACCCAUGUAUACUGAGGAUAUCCACUACUAAGGACGGGAGAAGGCAGUGUAAUGU [Ex NG3 #78] (Eterna round: R96, puzzle: Exclusion NG 3)	18.8	18.5	–	–	–	13.6
UAUAUAUAGUAAGGAUAUGUAUUUAUUUUGUAAACAGAAGGUACUGACAUGAGGAUCACCCAUGUUUUAGUGUGGGCAUGUAGA [JMF's solution 22] (Eterna round: R96, puzzle: Exclusion NG 1)	147	141	–	–	–	78.5
GCCGUAAAUGUGAGGAUAUACCUAUGGAUACAUAGGUAGAAGGCACAUGAGGAUCACCCAUGUCCUUAAUCGGC [Eli BMX r4m3] (Eterna round: R97, puzzle: Brourd's mod of Exclusion 4)	730	409	–	–	–	–
GAAAAGGUAGGAUAUACGAAGAAAAAGGGUAGAAAAAAAACACAUGAGGAUCACCCAUGUAGAAGGACCAAAAG [salish99_ex2_r3_028] (puzzle: Exclusion 2)	–	–	23.8	54.4	20.2	–
UGAGCUUCAGGAUAUACAAGGCGACCGUGAGGUCGAAGGUUACAUGAGGAUCACCCAUGUAGAAGGGAAGUUCU [Mat - Exclusion 2 - JL Mod - D13] (Eterna round: R97, puzzle: Exclusion 2)	36.7	21.6	–	–	–	–
AUGGGUCGGGAGGAUAUUCGGGCUCAUGGGCUUGGAGAAGGCUCGACAUGAGGAUCACCCAUGUAAGUGUUCUU [-25, -23.1 kcal, A 22%] (Eterna round: R97, puzzle: Exclusion 6)	550	32.2	–	–	–	–
CAAUAGGGAGGAUAUCCAAUAUAUGACAUGAGGAUCACCCAUGUUUCCACUCGUACCUCCGGAGAAGGCCCAUAAC [Ex5 #7] (Eterna round: R97, puzzle: Exclusion 5)	21.1	21.7	–	–	–	–
UUAAUACAUGUAGGAUAUGCGUGGCGAAGCUAUGCAGAAGGACAUGAGGAUCACCCAUGUUCUUGCGUCCGCGUACGGAUGCAA [JL Eng1 1.21 mod 4] (Eterna round: R96, puzzle: Exclusion NG 1)	29.4	15.2	–	–	–	10.2
